Assay [1] addresses Neutravidin (deglycosylated avidin) (UniProt P02701). Briefly: single-analyte, Neutravidin bead 40/70 without peptide, flow cytometry. In general terms: In flow cytometry, cells or beads pass a laser one at a time.
The target in assay [2] is Peptide 6 …-biotin. The experiment in a line: multiplex peptide beads, flow cytometry; beads pre-incubated with free biotin 10 ug/mL.
In a further assay the target is Peptide 1 …-biotin. The description is as above.
The next assay has as its target Peptide 9 …-biotin. The assay is described as above.
Another assay has as its target Peptide 7 …-biotin. Described as above.
In assay [3] the target is Peptide 5 …-biotin (human). Described as above.
The target of assay [4] is Peptide 2 …-biotin. The assay is described as above.
Assay [5] addresses Peptide 8 …-biotin. The assay is described as above.
The target of a further assay is Peptide 3 …-biotin. The assay is described as above.
The target in assay [6] is Peptide 4 …-biotin. Described as above.
For assay [7], the target named is Neutravidin (deglycosylated avidin) (UniProt P02701). Briefly: multiplex, Neutravidin bead 40/70 without peptide, flow cytometry.
In assay [8] the target is Peptide 6 …-biotin. Briefly: multiplex 9-peptide bead set, flow cytometry; MAB 384-Bodipy 15.5 ug/mL.
The target of assay [9] is Peptide 5 …-biotin (human). Described as above.
Assay [10] deals with Peptide 2 …-biotin. The assay is described as above.
Assay [11] deals with Peptide 8 …-biotin. The description is as above.
Assay [12] addresses Peptide 4 …-biotin. The assay is described as above.
Assay [13] addresses Neutravidin (deglycosylated avidin) (UniProt P02701). The experiment in a line: multiplex, Neutravidin bead 40/50 without peptide, flow cytometry.
For assay [14], the target named is Alpha fetoprotein (UniProt P02771). Briefly: multiplex no-wash sandwich, S10473 beads; serum Level 1, AFP 10.7 U/mL.
Assay [15] deals with Human chorionic gonadotropin (human) (UniProt P01215). The experiment in a line: MAB602 capture beads, flow cytometry; hCG 10.0 ng/mL, anti-AFP probe.
The target is the same in assay [16]. The experiment in a line: anti-AFP capture beads, flow cytometry; hCG 1000.0 ng/mL, anti-AFP probe.
Assay [17] has as its target Alpha fetoprotein (UniProt P02771). The experiment in a line: anti-AFP capture beads, flow cytometry; AFP 0.1 ng/mL, anti-AFP probe.
Assay [18] has the same target. The experiment in a line: multiplex sandwich, S10473 capture beads; AFP 1000 ng/mL, no wash.
Assay [19] has the same target. Briefly: anti-AFP capture beads, flow cytometry; AFP 10.0 ng/mL, anti-AFP probe.
For assay [20] the target is unchanged. The experiment in a line: multiplex sandwich, S10473 capture beads; AFP 250 ng/mL, washed.
Assay [21] shares this target. The experiment in a line: multiplex sandwich, S10473 capture beads; AFP 8 ng/mL, no wash.
Assay [22] shares this target. Briefly: multiplex sandwich, S10473 capture beads; AFP 4 ng/mL, washed.
The target is the same in assay [23]. Briefly: multiplex sandwich, S10473 capture beads; AFP 0 ng/mL, washed.
The target of assay [24] is Human chorionic gonadotropin (human) (UniProt P01215). The experiment in a line: bead sandwich, flow cytometry; capture A1 beads, no hCG (background).
The target is the same in assay [25]. The experiment in a line: multiplex sandwich, MAB602 capture beads; hCG 16 ng/mL, washed.
Assay [26] shares this target. Briefly: multiplex sandwich, MAB602 capture beads; hCG 2 ng/mL, no wash.
Assay [27] has the same target. The experiment in a line: sandwich, MAB602 capture beads, flow cytometry; hCG 0.02 ng/mL.
The target of assay [28] is Alpha fetoprotein (UniProt P02771). The experiment in a line: MAB602 capture beads, flow cytometry; AFP 100.0 ng/mL, anti-hCG probe.
The target in assay [29] is Human chorionic gonadotropin (human) (UniProt P01215). The experiment in a line: multiplex no-wash sandwich, MAB602 beads; Unknown serum, hCG computed 218.55 mU/mL.
The target is the same in assay [30]. Briefly: multiplex sandwich, MAB602 capture beads; hCG 31 ng/mL, washed.
The target is the same in assay [31]. The experiment in a line: bead sandwich, flow cytometry; capture A2 (MAB 602) beads, hCG 20.0 ug/mL.
For assay [32], the target named is Alpha fetoprotein (UniProt P02771). The experiment in a line: MAB602 capture beads, flow cytometry; AFP 10.0 ng/mL, anti-hCG probe.
Assay [33] deals with Human chorionic gonadotropin (human) (UniProt P01215). The experiment in a line: multiplex sandwich, MAB602 capture beads; hCG 250 ng/mL, washed.
Assay [34] has the same target. Briefly: sandwich, MAB602 capture beads, flow cytometry; hCG 0.002 ng/mL.
Assay [35] has the same target. Briefly: multiplex sandwich, MAB602 capture beads; hCG 1 ng/mL, no wash.
The target is the same in assay [36]. The experiment in a line: bead sandwich, flow cytometry; capture A2 (MAB 602) beads, no hCG (background).
Assay [37] shares this target. Briefly: bead sandwich, flow cytometry; capture A1 beads, hCG 20.0 ug/mL.
The target of assay [38] is Alpha fetoprotein (UniProt P02771). The experiment in a line: MAB602 capture beads, flow cytometry; AFP 0.0 ng/mL, anti-hCG probe.

Values joined by “and” are separate entries in the source; they are usually repeats but may differ in a detail not shown here. Equal values may be shown once.

Results on three substances are retold here after patent US20040059519A1.

UniProt P02701, sequence (P02701 25-152 limits assumed): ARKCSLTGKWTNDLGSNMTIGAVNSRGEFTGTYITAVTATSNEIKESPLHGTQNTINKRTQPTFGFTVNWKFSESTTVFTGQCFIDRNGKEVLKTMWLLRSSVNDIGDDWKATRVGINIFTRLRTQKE
UniProt P01215, sequence (P01215 25-116, chain 1 of 2, other chains not shown): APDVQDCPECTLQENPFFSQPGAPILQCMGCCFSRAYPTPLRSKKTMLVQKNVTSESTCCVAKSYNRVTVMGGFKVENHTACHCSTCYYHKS
UniProt P02771, sequence (P02771 19-609 limits assumed): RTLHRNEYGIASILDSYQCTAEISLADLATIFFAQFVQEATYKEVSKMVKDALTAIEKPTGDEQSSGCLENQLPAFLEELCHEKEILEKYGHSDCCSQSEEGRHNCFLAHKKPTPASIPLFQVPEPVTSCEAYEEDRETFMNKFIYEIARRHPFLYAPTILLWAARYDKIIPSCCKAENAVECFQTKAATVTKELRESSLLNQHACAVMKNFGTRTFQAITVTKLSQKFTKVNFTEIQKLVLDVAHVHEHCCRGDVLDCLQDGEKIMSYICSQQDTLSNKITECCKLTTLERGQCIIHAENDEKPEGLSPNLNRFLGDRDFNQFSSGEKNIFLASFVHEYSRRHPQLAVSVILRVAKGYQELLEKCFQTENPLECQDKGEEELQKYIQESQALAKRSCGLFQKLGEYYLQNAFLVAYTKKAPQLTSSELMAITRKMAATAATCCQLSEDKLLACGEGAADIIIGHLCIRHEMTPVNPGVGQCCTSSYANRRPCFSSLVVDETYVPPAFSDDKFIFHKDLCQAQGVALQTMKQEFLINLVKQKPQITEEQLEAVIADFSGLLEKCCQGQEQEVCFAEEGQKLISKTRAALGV

As for MAB 384, Bodipy FL-X labeled (antibody), the MIF of Fm stood at 43 in assay [1]; 34 in [7]; 67 in the assay with Peptide 6 …-biotin [8]; 1350 in assay [9]; 36 in the assay with Peptide 2 …-biotin [10]; 32 with Peptide 8 …-biotin [11]. In addition, the MIF of Fm worked out at 35 with Peptide 4 …-biotin [12] and 27 in [13]. Besides, the MIF was 20 with Peptide 6 …-biotin [2]; 17 with Peptide 1 …-biotin; 36 in the assay with Peptide 9 …-biotin; 23 with Peptide 7 …-biotin; 1020 in assay [3]; 19 in the assay with Peptide 2 …-biotin [4]. For the same substance, the MIF with Peptide 8 …-biotin [5] is 34; with Peptide 3 …-biotin it was 22; with Peptide 4 …-biotin [6], 26.

Substance “M20077 affinity purified polyclonal anti-AFP antibody, Bodipy FL-CASE labeled” had an MIF AVG with Alpha fetoprotein [14] of 78. In addition, in the assay with Alpha fetoprotein [14], the MIF of FL1 was 74 and 83 and 77. The MIF of Fm is 47 in [15]; 78 in assay [16]; 44 with Alpha fetoprotein [17]; 379 with Alpha fetoprotein [18]; 103 with Alpha fetoprotein [19]; 1200 in the assay with Alpha fetoprotein [20]. In addition, the MIF of Fm stood at 190 with Alpha fetoprotein [21], 108 with Alpha fetoprotein [22] and 13 with Alpha fetoprotein [23].

Consider “AB633 affinity purified polyclonal anti-hCG antibody, Bodipy FL-CASE labeled”, for which the MIF of Fm in assay [24] is 108; in assay [25], 2530; in assay [26], 650; in [27] it was 120 and 147; with Alpha fetoprotein [28] it was 47; in [30], 3180. For the same substance, the MIF of Fm in [31] was 9440; with Alpha fetoprotein [32], 47; in assay [33] it was 2760; in assay [34] it was 122 and 121; in assay [35], 330; in assay [36], 163. The MIF of Fm is 8790 in [37] and 71 with Alpha fetoprotein [38]. The same substance yielded an MIF AVG in assay [29] of 272. Moreover, in assay [29], the MIF of FL1 was 270 and 264 and 283.
